Tested on: Aβ1-40 or Aβ1-42 SDS-resistant polymers
Assay: Dissolution of in vitro Cu^2+-induced SDS-resistant Aβ polymers
Type: biochemical, human

B1: proteinase K: protease (protein, UniProt P06873 106-384, looked up)
Proteinase K: AAQTNAPWGLARISSTSPGTSTYYYDESAGQGSCVYVIDTGIEASHPEFEGRAQMVKTYYYSSRDGNGHGTHCAGTVGSRTYGVAKKTQLFGVKVLDDNGSGQYSTIIAGMDFVASDKNNRNCPKGVVASLSLGGGYSSSVNSAAARLQSSGVMVAVAAGNNNADARNYSPASEPSVCTVGASDRYDRRSSFSNYGSVLDIFGPGTSILSTWIGGSTRSISGTSMATPHVAGLAAYLMTLGKTTAASACRYIADTANKGDLSNIPFGTVNLLAYNNYQA
degradation of SDS-resistant Aβ polymers: complete degradation
